Earlier results in publication PMC10419064.

Molecular target: Cardiac troponin I switch peptide (Homo sapiens) (UniProt P19429)

- Kd: < 50 µM
Substance: Cardiac troponin C regulatory N-domain (from UniProt P63316)
